From patent publication US20250340661A1 (JIANGSU HENGRUI PHARMACEUTICALS, published 2025)

Assays:
[1] = target: T1, human CD40 on the cell surface (human, UniProt P25942 21-277); experiment: cell-based or functional assay
[2] = target: T1, human CD40 on the cell surface; experiment: cell-based or functional assay; remark: listed apart in the source
[3] = target: T1, human CD40 on the cell surface; experiment: cell-based or functional assay; remark: listed apart in the source
[4] = target: T1, human CD40 on the cell surface; experiment: cell-based or functional assay; remark: listed apart in the source
[5] = target: T1, human CD40 on the cell surface; experiment: cell-based or functional assay; remark: listed apart in the source
[6] = target: T1, human CD40 on the cell surface; experiment: flow cytometry on Raji cells, Alexa Fluor 488 anti-human IgG (H+L) detection
Procedure: Raji cells were plated at 1.5E5/well, and various concentrations of CD40 antagonistic antibodies were added. The plate was incubated at 4° C. for 1 h. After two washes with FACS buffer (PBS+2% FBS), a secondary antibody (Alexa Flour488 conjugated anti-human IgG (H+L) antibody) was added, and the plate was incubated at 4° C. for 0.5 h.
After two washes with FACS buffer, the fluorescence intensity on the cell surface was measured by flow cytometry (BD FACS Celesta).

[7] = target: T2, his-tagged human CD40 (h-CD40-his) recombinant protein (human, UniProt P25942 21-193); experiment: SPR (Biacore), antibody captured on anti-human Fc chip, His-tagged CD40 as analyte, 1:1 model
T2 construct: Bought from Acrobiosystems, Cat. #CD0-H5228; also called His-tagged human CD40 antigen; not shown: His tag
Procedure: (§1) The test antibody was affinity-captured on an anti-human Fc chip, and a series of concentrations of His-tagged human or cynomolgus monkey CD40 antigen were allowed to flow over the chip surface. Reaction signals were detected in real time using a Biacore instrument, and thus binding and dissociation curves were obtained. The buffer used in the experiment was HBS-EP+10× buffer solution (Cat. #BR-1006-69, GE) diluted to 1× (pH 7.4) with D. I. Water. Fitting was performed on the data obtained from the experiment using a (1:1) Binding model to obtain affinity values. 9E6-L4H2 and 2F12-L4H2 have similar binding constants for human CD40 to CFZ533, 9E6-L4H2 has a stronger binding affinity for cynomolgus monkey CD40, and 2F12-L4H2 has a slightly weak binding affinity for cynomolgus monkey CD40.

[8] = target: T3, his-tagged cynomolgus monkey CD40 (cyno-CD40-his) recombinant protein (cynomolgus monkey); experiment: as above
T3 construct: Bought from Acrobiosystems, Cat. #CD0-C52H6
Procedure: as §1

human FcRn antigen = human FcRn antigen (human, UniProt P55899 24-297; P61769 21-119); experiment: SPR (Biacore), antibody captured on anti-human Fab chip, human FcRn as analyte, steady state model
Procedure: The test antibody was affinity-captured on an anti-human Fab chip, and a series of concentrations of human FcRn antigen (purchased from AcroBiosystem) were allowed to flow over the chip surface. Reaction signals where the reactions were in a steady state were detected in real time using a Biacore instrument. The buffer used in the experiment was HBS-EP+10× buffer solution (Cat. #BR-1006-69, GE) diluted to 1× (pH 7.4) with D. I. Water. Fitting was performed on the data obtained from the experiment using a steady state binding model to obtain affinity values. The anti-CD40 antibodies carrying the AAYTE mutation have a higher binding affinity for human FcRn than their parent antibodies.

T1 sequence (P25942 21-277): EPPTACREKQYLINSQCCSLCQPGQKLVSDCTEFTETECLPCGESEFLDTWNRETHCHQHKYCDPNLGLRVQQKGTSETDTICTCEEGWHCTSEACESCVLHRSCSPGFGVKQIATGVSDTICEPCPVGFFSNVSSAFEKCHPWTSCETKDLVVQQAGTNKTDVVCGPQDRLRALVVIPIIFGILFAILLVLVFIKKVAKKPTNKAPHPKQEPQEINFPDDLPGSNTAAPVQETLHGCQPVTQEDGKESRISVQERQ
T2 sequence (P25942 21-193 limits assumed): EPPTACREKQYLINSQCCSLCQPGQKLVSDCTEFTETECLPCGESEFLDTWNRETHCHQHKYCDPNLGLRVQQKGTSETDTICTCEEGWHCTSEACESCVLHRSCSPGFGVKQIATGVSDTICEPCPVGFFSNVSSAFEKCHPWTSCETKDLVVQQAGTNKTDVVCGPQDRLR

- IC50 for the inhibition of CD40 reporter gene cell activity (Assay 1) [1]: 180 pM
- B cell activation assay, CD19+CD69+ % IC50 [2]: 40 pM
- B cell activation assay, CD19+CD69+ MFI IC50 [2]: 30 pM
- IC50 in DC cell activation assay system, CD80 MFI [3]: 780 pM
- IC50 in DC cell activation assay system, CD86 MFI [3]: 520 pM
- IC50 in DC cell activation assay system, IL-12/23 p40 [3]: 680 pM
- IC50 in DC cell activation assay system, TNFα [3]: 300 pM
- IC50 (read off the curve), CD40L-induced IL-12/23 p40 secretion by DC cells [4]: ~700 pM
- IC50 (read off the curve), CD40L-induced TNFα secretion by DC cells [5]: ~400 pM
- EC50 [6]: 589 pM
- Kd [7]: 2710 pM
- koff [7]: 0.00206 s⁻¹
- kon [7]: 758000 M⁻¹ s⁻¹
- Kd [8]: 35300 pM
- koff [8]: 0.414 s⁻¹
- kon [8]: 1.17e+07 M⁻¹ s⁻¹
- Kd (human FcRn antigen): 279000 pM
B1: humanized anti-CD40 antibody 2F12-L4H2 (antibody, human IgG1, kappa, N297A)
heavy: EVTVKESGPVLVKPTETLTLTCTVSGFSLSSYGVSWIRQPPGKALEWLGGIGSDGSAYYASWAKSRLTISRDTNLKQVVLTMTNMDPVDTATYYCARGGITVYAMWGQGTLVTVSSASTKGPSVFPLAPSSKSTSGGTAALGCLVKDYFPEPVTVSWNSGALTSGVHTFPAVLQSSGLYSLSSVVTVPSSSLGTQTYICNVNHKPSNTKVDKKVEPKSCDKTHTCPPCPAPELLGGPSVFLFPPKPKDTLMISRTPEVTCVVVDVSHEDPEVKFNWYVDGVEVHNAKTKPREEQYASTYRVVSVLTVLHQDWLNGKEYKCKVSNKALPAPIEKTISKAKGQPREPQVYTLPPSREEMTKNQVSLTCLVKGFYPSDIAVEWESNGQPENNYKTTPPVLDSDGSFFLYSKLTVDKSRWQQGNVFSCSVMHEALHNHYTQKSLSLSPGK
light: AFQLTQSPSSLSASVGDRVTITCQASQSISTGLAWYQQKPGKPPKLLIVGASNLASGVPSRFSGSGSGTDFTLTISSLQPEDFATYYCQSYFSSSSTVFGGGTKVEIKRTVAAPSVFIFPPSDEQLKSGTASVVCLLNNFYPREAKVQWKVDNALQSGNSQESVTEQDSKDSTYSLSSTLTLSKADYEKHKVYACEVTHQGLSSPVTKSFNRGEC
notes: human IgG1 N297A (Eu) heavy chain, human kappa light chain; 2F12-L4 light chain and 2F12-H2 heavy chain
